Laboratory results published in patent publication US20200087373A1 (UNIVERSITY OF COPENHAGEN, published 2020).
Ends that are not written are not given here. * marks the point of attachment. C16 diacid = O=C(O)CCCCCCCCCCCCCCC(=O)*

B1: AT176 [hGIP(5-30)NH2[M14K]-C16diacid/14] (peptide)
peptide: TFISDYSIAK(C16 diacid)DKIHQQDFVNWLLAQK-NH2
modifications: N-terminus assumed
SMILES: CC[C@H](C)[C@H](NC(=O)[C@H](CO)NC(=O)[C@H](Cc1ccc(O)cc1)NC(=O)[C@H](CC(=O)O)NC(=O)[C@H](CO)NC(=O)[C@@H](NC(=O)[C@H](Cc1ccccc1)NC(=O)[C@@H](N)[C@@H](C)O)[C@@H](C)CC)C(=O)N[C@@H](C)C(=O)N[C@@H](CCCCNC(=O)CCCCCCCCCCCCCCC(=O)O)C(=O)N[C@@H](CC(=O)O)C(=O)N[C@@H](CCCCN)C(=O)N[C@H](C(=O)N[C@@H](Cc1c[nH]cn1)C(=O)N[C@@H](CCC(N)=O)C(=O)N[C@@H](CCC(N)=O)C(=O)N[C@@H](CC(=O)O)C(=O)N[C@@H](Cc1ccccc1)C(=O)N[C@H](C(=O)N[C@@H](CC(N)=O)C(=O)N[C@@H](Cc1c[nH]c2ccccc12)C(=O)N[C@@H](CC(C)C)C(=O)N[C@@H](CC(C)C)C(=O)N[C@@H](C)C(=O)N[C@@H](CCC(N)=O)C(=O)N[C@@H](CCCCN)C(N)=O)C(C)C)[C@@H](C)CC
B2: AT179 [hGIP(5-30)NH2[Q19K]-C16diacid/19] (peptide)
peptide: TFISDYSIAMDKIHK(C16 diacid)QDFVNWLLAQK-NH2
modifications: N-terminus assumed
SMILES: CC[C@H](C)[C@H](NC(=O)[C@H](CO)NC(=O)[C@H](Cc1ccc(O)cc1)NC(=O)[C@H](CC(=O)O)NC(=O)[C@H](CO)NC(=O)[C@@H](NC(=O)[C@H](Cc1ccccc1)NC(=O)[C@@H](N)[C@@H](C)O)[C@@H](C)CC)C(=O)N[C@@H](C)C(=O)N[C@@H](CCSC)C(=O)N[C@@H](CC(=O)O)C(=O)N[C@@H](CCCCN)C(=O)N[C@H](C(=O)N[C@@H](Cc1c[nH]cn1)C(=O)N[C@@H](CCCCNC(=O)CCCCCCCCCCCCCCC(=O)O)C(=O)N[C@@H](CCC(N)=O)C(=O)N[C@@H](CC(=O)O)C(=O)N[C@@H](Cc1ccccc1)C(=O)N[C@H](C(=O)N[C@@H](CC(N)=O)C(=O)N[C@@H](Cc1c[nH]c2ccccc12)C(=O)N[C@@H](CC(C)C)C(=O)N[C@@H](CC(C)C)C(=O)N[C@@H](C)C(=O)N[C@@H](CCC(N)=O)C(=O)N[C@@H](CCCCN)C(N)=O)C(C)C)[C@@H](C)CC
B3: AT178 [hGIP(5-30)NH2[I17K]-C16diacid/17] (peptide)
peptide: TFISDYSIAMDKK(C16 diacid)HQQDFVNWLLAQK-NH2
modifications: N-terminus assumed
SMILES: CC[C@H](C)[C@H](NC(=O)[C@H](CO)NC(=O)[C@H](Cc1ccc(O)cc1)NC(=O)[C@H](CC(=O)O)NC(=O)[C@H](CO)NC(=O)[C@@H](NC(=O)[C@H](Cc1ccccc1)NC(=O)[C@@H](N)[C@@H](C)O)[C@@H](C)CC)C(=O)N[C@@H](C)C(=O)N[C@@H](CCSC)C(=O)N[C@@H](CC(=O)O)C(=O)N[C@@H](CCCCN)C(=O)N[C@@H](CCCCNC(=O)CCCCCCCCCCCCCCC(=O)O)C(=O)N[C@@H](Cc1c[nH]cn1)C(=O)N[C@@H](CCC(N)=O)C(=O)N[C@@H](CCC(N)=O)C(=O)N[C@@H](CC(=O)O)C(=O)N[C@@H](Cc1ccccc1)C(=O)N[C@H](C(=O)N[C@@H](CC(N)=O)C(=O)N[C@@H](Cc1c[nH]c2ccccc12)C(=O)N[C@@H](CC(C)C)C(=O)N[C@@H](CC(C)C)C(=O)N[C@@H](C)C(=O)N[C@@H](CCC(N)=O)C(=O)N[C@@H](CCCCN)C(N)=O)C(C)C
B4: AT177 [hGIP(5-30)NH2[D15K]-C16diacid/15] (peptide)
peptide: TFISDYSIAMK(C16 diacid)KIHQQDFVNWLLAQK-NH2
modifications: N-terminus assumed
SMILES: CC[C@H](C)[C@H](NC(=O)[C@H](CO)NC(=O)[C@H](Cc1ccc(O)cc1)NC(=O)[C@H](CC(=O)O)NC(=O)[C@H](CO)NC(=O)[C@@H](NC(=O)[C@H](Cc1ccccc1)NC(=O)[C@@H](N)[C@@H](C)O)[C@@H](C)CC)C(=O)N[C@@H](C)C(=O)N[C@@H](CCSC)C(=O)N[C@@H](CCCCNC(=O)CCCCCCCCCCCCCCC(=O)O)C(=O)N[C@@H](CCCCN)C(=O)N[C@H](C(=O)N[C@@H](Cc1c[nH]cn1)C(=O)N[C@@H](CCC(N)=O)C(=O)N[C@@H](CCC(N)=O)C(=O)N[C@@H](CC(=O)O)C(=O)N[C@@H](Cc1ccccc1)C(=O)N[C@H](C(=O)N[C@@H](CC(N)=O)C(=O)N[C@@H](Cc1c[nH]c2ccccc12)C(=O)N[C@@H](CC(C)C)C(=O)N[C@@H](CC(C)C)C(=O)N[C@@H](C)C(=O)N[C@@H](CCC(N)=O)C(=O)N[C@@H](CCCCN)C(N)=O)C(C)C)[C@@H](C)CC
B5: AT180 [hGIP(5-30)NH2[Q20K]-C16diacid/20] (peptide)
peptide: TFISDYSIAMDKIHQK(C16 diacid)DFVNWLLAQK-NH2
modifications: N-terminus assumed
SMILES: CC[C@H](C)[C@H](NC(=O)[C@H](CO)NC(=O)[C@H](Cc1ccc(O)cc1)NC(=O)[C@H](CC(=O)O)NC(=O)[C@H](CO)NC(=O)[C@@H](NC(=O)[C@H](Cc1ccccc1)NC(=O)[C@@H](N)[C@@H](C)O)[C@@H](C)CC)C(=O)N[C@@H](C)C(=O)N[C@@H](CCSC)C(=O)N[C@@H](CC(=O)O)C(=O)N[C@@H](CCCCN)C(=O)N[C@H](C(=O)N[C@@H](Cc1c[nH]cn1)C(=O)N[C@@H](CCC(N)=O)C(=O)N[C@@H](CCCCNC(=O)CCCCCCCCCCCCCCC(=O)O)C(=O)N[C@@H](CC(=O)O)C(=O)N[C@@H](Cc1ccccc1)C(=O)N[C@H](C(=O)N[C@@H](CC(N)=O)C(=O)N[C@@H](Cc1c[nH]c2ccccc12)C(=O)N[C@@H](CC(C)C)C(=O)N[C@@H](CC(C)C)C(=O)N[C@@H](C)C(=O)N[C@@H](CCC(N)=O)C(=O)N[C@@H](CCCCN)C(N)=O)C(C)C)[C@@H](C)CC

Columns and labels:
[1] = target: T1, human GIP receptor (human, UniProt P48546 22-466); test: 125I-hGIP(1-42) competition binding, COS-7 cells expressing human GIPR, without HSA;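 note: nonspecific binding defined as radioligand bound to cells lacking the transfected receptor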
T1 construct: whole, on cells; Transiently transfected COS-7 cells expressing the human GIP receptor; also called hGIPR
T1 sequence (looked up): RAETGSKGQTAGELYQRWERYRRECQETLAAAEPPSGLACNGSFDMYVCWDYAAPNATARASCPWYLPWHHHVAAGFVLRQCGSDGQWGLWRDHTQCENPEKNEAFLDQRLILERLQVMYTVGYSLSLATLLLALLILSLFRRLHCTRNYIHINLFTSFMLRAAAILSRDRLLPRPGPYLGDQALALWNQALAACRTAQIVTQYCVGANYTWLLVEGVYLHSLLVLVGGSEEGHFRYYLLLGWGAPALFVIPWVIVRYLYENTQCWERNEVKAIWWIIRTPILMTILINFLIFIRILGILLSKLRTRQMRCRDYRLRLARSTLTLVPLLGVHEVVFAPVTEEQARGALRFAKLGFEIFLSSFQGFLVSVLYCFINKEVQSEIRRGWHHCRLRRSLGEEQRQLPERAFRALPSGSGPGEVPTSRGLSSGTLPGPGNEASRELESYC
Description: (§1) After incubation, the cells were washed twice in ice-cold binding buffer (+/−2% HSA) and lysed using 200 mM NaOH with 1% SDS for 30 min. Nonspecific binding was determined as the binding of radioactive ligand to untransfected cells.

[2] = target: T1, human GIP receptor; test: ratio of Ki with 2% HSA to Ki without HSA, 125I-hGIP competition binding on hGIPR COS-7 cells;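 note: nonspecific binding was defined as radioligand signal on cells lacking the receptor transfection, with cell lysates measured after washes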
Description: as §1

[3] = target: T1, human GIP receptor; test: cell-based or functional assay
[4] = target: T1, human GIP receptor; test: 125I-hGIP(1-42) competition binding, COS-7 cells expressing human GIPR, with 2% HSA;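 note: nonspecific signal taken as radioligand bound to untransfected cells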
Description: as §1

Binder	Ki [1] [nM]	Fold (Ki + HSA / Ki - HSA) [2] [fold]	cAMP accumulation Fold (fold change from GIP(5-30)NH2) [3] [fold]	cAMP accumulation IC50 [3] [nM]	cAMP accumulation logIC50 [3]	Ki [4] [nM]
B1	82.6	5.1	3.8	105	-6.98 log(M)	420
B2	378	6.3	2.1	57.5	-7.24 log(M)	2380
B3	54.3	4.5	1	27.5	-7.56 log(M)	243
B4	117	3.8	1.3	37.2	-7.43 log(M)	444
B5	82.8	6.4	1.7	46.8	-7.33 log(M)	533
